The target of the test is Low density lipoprotein receptor (LDLR) expressed on HEK293 cells transfected with LDLR modified mRNA (mRNA SEQ ID NO: 21463) (human) (UniProt P01130). The test is described as follows: FACS; rising amounts of BODIPY-LDL on HEK293 cells transfected with LDLR mRNA, 1 h at 37 C.
Chain of Low density lipoprotein receptor (LDLR) expressed on HEK293 cells transfected with LDLR modified mRNA (mRNA SEQ ID NO: 21463) (human) (P01130 22-860): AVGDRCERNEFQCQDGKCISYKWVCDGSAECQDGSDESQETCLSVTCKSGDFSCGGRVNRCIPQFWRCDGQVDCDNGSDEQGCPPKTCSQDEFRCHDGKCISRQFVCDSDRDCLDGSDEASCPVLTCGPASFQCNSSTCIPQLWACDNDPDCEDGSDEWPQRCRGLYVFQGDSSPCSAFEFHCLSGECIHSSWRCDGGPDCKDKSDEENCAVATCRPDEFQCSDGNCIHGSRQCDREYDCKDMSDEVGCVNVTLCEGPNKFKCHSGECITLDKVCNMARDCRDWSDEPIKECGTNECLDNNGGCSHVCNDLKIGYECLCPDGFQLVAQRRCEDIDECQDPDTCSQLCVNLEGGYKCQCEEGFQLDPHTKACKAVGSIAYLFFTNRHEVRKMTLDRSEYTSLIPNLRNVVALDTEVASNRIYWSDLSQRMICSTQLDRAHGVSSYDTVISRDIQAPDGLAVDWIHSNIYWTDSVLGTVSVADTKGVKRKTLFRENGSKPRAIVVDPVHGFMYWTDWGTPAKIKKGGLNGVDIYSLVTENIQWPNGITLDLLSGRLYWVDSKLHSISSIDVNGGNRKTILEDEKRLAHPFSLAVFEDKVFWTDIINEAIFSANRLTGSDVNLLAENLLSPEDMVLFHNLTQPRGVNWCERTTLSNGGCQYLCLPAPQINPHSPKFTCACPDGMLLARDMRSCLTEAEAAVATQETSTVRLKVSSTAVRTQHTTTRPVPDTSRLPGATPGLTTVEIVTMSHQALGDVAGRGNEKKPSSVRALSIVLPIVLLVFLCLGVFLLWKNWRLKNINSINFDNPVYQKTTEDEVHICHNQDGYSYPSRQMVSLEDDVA

Broadly, the Kd is a measure of binding affinity in units of concentration. Regarding “BODIPY-labeled LDL (low density lipoprotein) (from UniProt P04114 28-4563) (ligand)”, the Kd amounted to 0.06 µg/mL.

The values above are taken from WO2013151666A2.
